Bridge positions count the residues as written; N and C are the ends. Square brackets hold non-standard residues; d marks the D form. Ends that are not written are not given here. * marks the point of attachment. chloroacetamidine = chloroacetamidine warhead on ornithine δ-NH2, N=C(CCl)*; Ahp(2) = CCCCC[C@H](N)C(=O)O; Orn = NCCC[C@H](N)C(=O)O
What was measured:
[1] = target: T1, PAD4 (Homo sapiens, UniProt Q9UM07); assay: In vitro PAD4 inhibition assay, colorimetric analysis with COLDER solution, substrate BAEE; assay type: biochemical; conditions: peptide 0 μM to 50 μM, PAD4 0.2 μM, BAEE 10 mM; for PAD4 inhibition, dose dependence / PAD4 inhibitory activity compared with the existing PAD4 inhibitor: initial data
T1 construct: purchased Modiquest Research MQ 16.206-10
Method: Human PAD4 was purchased from Modiquest Research (catalog no. MQ 16.206-10). Human PAD4 is a protein having NCBI accession no. CCDS180.1, a molecular weight of 74.08 kDa, and 663 amino acids.
PAD4 inhibition assay was performed using various concentrations of VB peptides in a reaction buffer containing 100 mM HEPES (pH 7.6) and 50 mM NaCl.
Before reaction was initiated by adding BAEE (final concentration: 10 mM), the above reaction mixture was incubated with PAD4 (0.2 μM) (in the presence of 5 mM CaCl2) at 37° C. for 15 minutes. After reaction for 30 minutes, the reaction was terminated by flash freezing in liquid nitrogen. For color development, 200 μL of a freshly prepared COLDER solution (2.25 M H3PO4, 4.5 M H2SO4, 1.5 mM NH4Fe(SO4), 20 mM diacetyl monoxime, and 1.5 mM thiosemicarbazide) was added to each of the reaction terminated solutions. The resulting mixture was vortexed to ensure complete mixing and then, incubated at 95° C. for 30 minutes (Firestein, G. S., 2003, Nature, 423(6937), 356-61; Jones, J. E., et al., ACS chemical biology, 7(1), 160-5). The absorbance at 540 nm was measured. Compared with a standard curve of Cit, the concentration of Cit produced during the reaction was determined.

[2] = tested on: HeLa cells; assay: Intracellular introduction of fluorescently labeled peptides into living HeLa cells, confocal microscope; assay type: cell-based; conditions: 37° C., 60 minutes
Method: HeLa cells proliferated on a 90-mm plate until they reached sub-confluence and Trypsin/EDTA were treated at 37° C. for […] to release the cells from the plate. A culture dish (Iwaki) having a 35-mm glass bottom was seeded with 1×10^4 cells. […] The latter ones were used for confirming cell integrity. The intracellular distribution of the fluorescently labeled peptide was analyzed using a Leica TCS SP2 microscope equipped with an N PLAN 40× objective lens, without washing and immobilization. The HeLa cells were incubated with the fluorescently labeled peptides, at 37° C. for 60 minutes. […], they were observed under a confocal fluorescence microscope. All the assays were performed using a small dish with a glass bottom so that not a sample having the cells mounted thereon but a sample in a buffer was observed. DRAQ7 (3 μM) is a far-red fluorescent dye and it dyes only the nuclei of permeable dead cells. When the peptides are incubated, this DRAQ7 is added to find whether the cells are alive or not.

T1 sequence (Q9UM07 whole entry): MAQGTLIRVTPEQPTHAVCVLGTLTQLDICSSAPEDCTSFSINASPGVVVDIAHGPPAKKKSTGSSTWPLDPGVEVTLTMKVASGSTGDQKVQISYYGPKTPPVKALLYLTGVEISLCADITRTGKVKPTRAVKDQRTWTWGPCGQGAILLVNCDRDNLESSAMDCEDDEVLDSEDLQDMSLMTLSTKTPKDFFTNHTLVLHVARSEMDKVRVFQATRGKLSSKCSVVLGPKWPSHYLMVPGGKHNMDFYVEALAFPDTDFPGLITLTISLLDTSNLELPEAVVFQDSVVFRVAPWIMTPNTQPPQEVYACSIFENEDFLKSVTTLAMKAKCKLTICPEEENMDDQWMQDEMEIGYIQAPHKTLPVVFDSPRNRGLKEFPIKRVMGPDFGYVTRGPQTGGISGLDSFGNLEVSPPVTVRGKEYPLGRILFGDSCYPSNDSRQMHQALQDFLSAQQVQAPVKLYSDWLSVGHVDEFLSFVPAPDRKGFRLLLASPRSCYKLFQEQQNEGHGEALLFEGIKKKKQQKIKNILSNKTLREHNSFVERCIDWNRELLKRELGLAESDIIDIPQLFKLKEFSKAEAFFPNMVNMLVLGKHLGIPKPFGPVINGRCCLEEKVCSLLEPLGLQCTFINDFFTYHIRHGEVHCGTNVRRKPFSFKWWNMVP

PAD4 inhibitory ability relative to Cl-amidine and VB1C12 peptide [1] [times] | PAD4 inhibition, dose dependence [1] | Substance | concentration necessary for incorporation in HeLa cells [2] | PAD4 inhibitory activity compared with the existing PAD4 inhibitor [1]
2.7 | – | VB1C12-Cl-amidine analog: VB1C12 peptide with a haloacetamidine warhead introduced by modifying the Arg residue (ornithine δNH2 chloroacetamidine) (Ac-[dF]NA[Ahp(2)]YPY[Orn](chloroacetamidine)PP[Ahp(2)]TSC; bridge N-14; not fully specified (C-terminus, bridges)) | – | –
– | dose-dependently inhibit PAD4 | ^ClAc-D-F-D-A-Ahep-Y-P-F-R-P-P-Ahep-A-H-C (Ac-[dF]DA[Ahp(2)]YPFRPP[Ahp(2)]AHC; bridge N-14; not fully specified (C-terminus, bridges); printed as ClAc-D-F-D-A-Ahep-Y-P-F-R-P-P-Ahep-A-H-C) [VB1C20] | at least 10 μM | not stronger than that of the existing PAD4 inhibitor
– | dose-dependently inhibit PAD4 | ^ClAc-D-F-N-A-Ahep-Y-P-Y-R-P-P-Ahep-T-S-C ({CH2CO}-[dF]NA[Ahp(2)]YPYRPP[Ahp(2)]TSC-NH2; thioether N-14; SMILES CCCCC[C@@H]1NC(=O)[C@H](C)NC(=O)[C@H](CC(N)=O)NC(=O)[C@@H](Cc2ccccc2)NC(=O)CSC[C@@H](C(N)=O)NC(=O)[C@H](CO)NC(=O)[C@H]([C@@H](C)O)NC(=O)[C@H](CCCCC)NC(=O)[C@@H]2CCCN2C(=O)[C@@H]2CCCN2C(=O)[C@H](CCCNC(=N)N)NC(=O)[C@H](Cc2ccc(O)cc2)NC(=O)[C@@H]2CCCN2C(=O)[C@H](Cc2ccc(O)cc2)NC1=O) [VB1C12] | – | not stronger than that of the existing PAD4 inhibitor

From patent US10234460B2, “Macrocyclic peptide, method for producing same, and screening method using macrocyclic peptide library” (The University of Tokyo, priority 2013, dated 2019)
